In article doi:10.1101/479162v2:

B1: SpAS1 (arylsulfatase 1 from Silicibacter pomeroyi DSS-3), purified (Ruegeria pomeroyi DSS-3) (protein)
chain: MTQNRNILWIMCDQLRFDYLSCYGHERLNTPNIDKLAKRGVRFTNAYVQATVCGPSRMSAYTGRYVRSHGSTQNGIPLRVGEPTLGDHLRDVGMRNVLIGKTHMRPDLDGMKRLGIDPDSEIGARVGEGGFDAFDRDDGVHPTGYRKKEPAYNDYLRHAGFQAENPWEFWANSAEGKGGENQSGWLLTHADKPARVPEEHSETAYMTRRAMEFMEAAEKDGRPWCAHLSYIKPHWPYIVPAPYHDMFGPDDVKPAVRSDEELKAAHPLFKAMTEEVYSRNFARDEVREKVIPAYMGLIKQIDDQLGQLFAFMQERGLDENTMIVFTADHGDYLGDHWMGEKYLFYEAAAKVPLIIYDPSDKADATRGTVSDALVEMIDLAPTFVDYAGGVPPMHILEGKSLLPLLHDDDSSWDRQYVFSELDYSNLPARLKLGRDIQDCRATMVFDGRYKLVEVMGFAPILFDLEVDPDELKDLGRDPSAEEVRQRLTSALDAWHRNTRQRITKSDAAYRALDPVLRESDPDLMAGVIIGYWDEDEVEAEKRRIARILGENS
B2: SpAS1 (arylsulfatase 1 from Silicibacter pomeroyi DSS-3), purified (Ruegeria pomeroyi DSS-3; K147E/M111T) (protein)
chain: MTQNRNILWIMCDQLRFDYLSCYGHERLNTPNIDKLAKRGVRFTNAYVQATVCGPSRMSAYTGRYVRSHGSTQNGIPLRVGEPTLGDHLRDVGMRNVLIGKTHMRPDLDGTKRLGIDPDSEIGARVGEGGFDAFDRDDGVHPTGYREKEPAYNDYLRHAGFQAENPWEFWANSAEGKGGENQSGWLLTHADKPARVPEEHSETAYMTRRAMEFMEAAEKDGRPWCAHLSYIKPHWPYIVPAPYHDMFGPDDVKPAVRSDEELKAAHPLFKAMTEEVYSRNFARDEVREKVIPAYMGLIKQIDDQLGQLFAFMQERGLDENTMIVFTADHGDYLGDHWMGEKYLFYEAAAKVPLIIYDPSDKADATRGTVSDALVEMIDLAPTFVDYAGGVPPMHILEGKSLLPLLHDDDSSWDRQYVFSELDYSNLPARLKLGRDIQDCRATMVFDGRYKLVEVMGFAPILFDLEVDPDELKDLGRDPSAEEVRQRLTSALDAWHRNTRQRITKSDAAYRALDPVLRESDPDLMAGVIIGYWDEDEVEAEKRRIARILGENS
B3: SpAS1 (arylsulfatase 1 from Silicibacter pomeroyi DSS-3), purified (Ruegeria pomeroyi DSS-3; R429Q) (protein)
chain: MTQNRNILWIMCDQLRFDYLSCYGHERLNTPNIDKLAKRGVRFTNAYVQATVCGPSRMSAYTGRYVRSHGSTQNGIPLRVGEPTLGDHLRDVGMRNVLIGKTHMRPDLDGMKRLGIDPDSEIGARVGEGGFDAFDRDDGVHPTGYRKKEPAYNDYLRHAGFQAENPWEFWANSAEGKGGENQSGWLLTHADKPARVPEEHSETAYMTRRAMEFMEAAEKDGRPWCAHLSYIKPHWPYIVPAPYHDMFGPDDVKPAVRSDEELKAAHPLFKAMTEEVYSRNFARDEVREKVIPAYMGLIKQIDDQLGQLFAFMQERGLDENTMIVFTADHGDYLGDHWMGEKYLFYEAAAKVPLIIYDPSDKADATRGTVSDALVEMIDLAPTFVDYAGGVPPMHILEGKSLLPLLHDDDSSWDRQYVFSELDYSNLPAQLKLGRDIQDCRATMVFDGRYKLVEVMGFAPILFDLEVDPDELKDLGRDPSAEEVRQRLTSALDAWHRNTRQRITKSDAAYRALDPVLRESDPDLMAGVIIGYWDEDEVEAEKRRIARILGENS

Assays:
Details in all cases: KSI (substrate inhibition) also fitted
[1] = substrate: O=C1OC2(c3ccc(OS(=O)(=O)O)cc3Oc3cc(OS(=O)(=O)O)ccc32)c2ccccc21; assay: fluorescence, Michaelis-Menten kinetics of purified enzyme; type: biochemical, Ruegeria pomeroyi
purified protein [2] = substrate: O=[N+]([O-])c1ccc(OS(=O)(=O)O)cc1; assay: purified protein
purified protein [3] = substrate: O=C1OC2(c3ccc(OS(=O)(=O)O)cc3Oc3cc(OS(=O)(=O)O)ccc32)c2ccccc21; assay: purified protein

Protein | Km [1] [mM] | kcat [1] [s⁻¹] | Km (purified protein [2]) [mM] | kcat (purified protein [2]) [s⁻¹] | Km (purified protein [3]) [mM] | kcat (purified protein [3]) [s⁻¹]
B1 | 4.5 ± 0.5 | 0.116 ± 0.004 | 7.1 ± 1.7 | 34 ± 5 | – | –
B2 | – | – | 3.4 ± 0.3 | 100 ± 4 | 2.4 ± 0.2 | 0.074 ± 0.002
B3 | 1.0 ± 0.1 | 0.77 ± 0.04 | 7.3 ± 1.5 | 26 ± 3 | – | –
